Measured values from patent US20150291952, “RNA APTAMER ISOLATION VIA DUAL-CYCLE (RAPID) SELECTION” (CORNELL UNIVERSITY, published 2015).

Experiments:
CHK2 [1] = biological target: T1, CHK2 (UniProt O96017 O96017:1-543); assay: EMSA; F-EMSA, Hill fit; 25 mM Tris pH 8.0, 10 mM NaCl, 25 mM KCl, 5 mM MgCl2, 10 ug/ml yeast tRNA, room temp; binding to contaminant not ruled out; settings: tags: hexahistidine; expressed in E. coli BL21(DE3)-RIPL, Ni-NTA, ~90-95% pure; label: 3'-fluorescein (fluorescein 5-thiosemicarbazide)
Description: (§1) The RNA samples were 3′-end labelled with fluorescein 5-thiosemicarbazide (Invitrogen) as described previously (Pagano et al. 2007). 50 μL binding reactions were prepared with 2 nM fluorescently-labelled RNA and decreasing amounts of protein (2000 to 0 nM) in binding buffer containing 0.01% IGEPAL CA630, 10 μg/ml yeast tRNA, and 3 U of SUPERase•In RNase Inhibitor. Reactions were prepared in black 96-well half area microplates (Corning) and incubated at room temperature for 2 hours. The plates were scanned on a Synergy H1 microplate reader (BioTek) using the Ex: 485/20 Em: 528/20 filter set to determine the Fluorescence Polarization (FP). The polarization “P” is determined from the total parallel and perpendicular polarized fluorescence according to:
(§2) In order to confirm that the two methods had independently enriched the same aptamer, we tested the unambiguous top-ranked SELEX/RAPID candidate for CHK2 binding, hereafter referred to as C6M1. […] The calculated fraction bound curve for the gel shift is also shown in FIG. 6B as the solid line (left axis). […] In order to ensure that the observed binding was not a gel artefact, we also performed a Fluorescence Polarization (FP) assay. […]

CHK2 [2] = biological target: T1, CHK2; assay: FP; same samples as F-EMSA, Hill fit; 5 mM MgCl2, yeast tRNA, room temp; settings: tags: hexahistidine; expressed in E. coli BL21(DE3)-RIPL, Ni-NTA, ~90-95% pure; label: 3'-fluorescein (fluorescein 5-thiosemicarbazide)
Description: as §1, §2

T1 sequence (O96017 whole entry, one chain of several): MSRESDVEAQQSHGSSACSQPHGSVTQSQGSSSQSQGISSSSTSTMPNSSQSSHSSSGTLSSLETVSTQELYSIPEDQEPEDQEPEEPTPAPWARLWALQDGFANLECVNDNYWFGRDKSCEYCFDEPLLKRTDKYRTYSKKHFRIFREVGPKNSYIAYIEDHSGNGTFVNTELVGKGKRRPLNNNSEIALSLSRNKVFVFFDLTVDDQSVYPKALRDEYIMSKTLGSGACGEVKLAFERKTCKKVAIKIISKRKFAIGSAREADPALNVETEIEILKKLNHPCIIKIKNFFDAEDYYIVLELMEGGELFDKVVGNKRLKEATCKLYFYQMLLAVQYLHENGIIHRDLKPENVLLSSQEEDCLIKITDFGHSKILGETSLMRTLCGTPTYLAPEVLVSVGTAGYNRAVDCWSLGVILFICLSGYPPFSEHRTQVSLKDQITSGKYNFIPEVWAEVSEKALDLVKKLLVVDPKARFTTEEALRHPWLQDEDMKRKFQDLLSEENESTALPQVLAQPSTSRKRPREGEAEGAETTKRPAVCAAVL

B1: C6M1 (ssRNA)
RNA: GGGAAUGGAUCCACAUCUACGAAUUCGAUCGGUUCCAACGCUCUGUCGCCUAAGUGAACAGAUGAAGAAAAAAUAGCCCAAUAAGAGGCAACAAUCUUUCACUGCAGACUUGACGAAGCUU
modifications: RNA transcript; SEQ:21 is the random region, assayed RNA also carries both library constant regions (reverse complement of the SEQ:22 flanks) [positions count without the 26-nt 5-prime fixed region]
In the case of B1, the Kd (CHK2 [1]) is reported as 180 nM and the Kd (CHK2 [2]) is reported as 299 nM.
